Data: US20110223107A1 (ALETHIA BIOTHERAPEUTICS, published 2011)
Values belong to the binder of their own block, whether it stands above or below them.

Experiments:
[1] = molecular target: T1, monomeric recombinant KAAG1 (Homo sapiens (Human), UniProt Q9UBP8 1-84, limits assumed); assay: SPR (Biacore), antibody captured by anti-human Fc, 1:1 fit
T1 construct: Analyte of the Biacore experiment
T1 sequence: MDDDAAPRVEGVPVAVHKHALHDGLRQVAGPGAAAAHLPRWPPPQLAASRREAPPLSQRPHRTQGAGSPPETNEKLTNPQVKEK
Experimental: (§1) More precise measurements were conducted using Surface Plasmon Resonance (SPR) in a Biacore instrument. Kinetic analysis was used to compare the affinity of the chimeric 3D3 with the h3D3 as well as with hybrid antibodies encompassing different permutations of the light and heavy chains (see FIG. 18B). Briefly, anti-human Fc was immobilized on the Biacore sensor chip and chimeric or h3D3 was captured on the chip. Different concentrations of monomeric recombinant KAAG1 were injected and the data were globally fitted to a simple 1:1 model to determine the kinetic parameters of the interaction.

[2] = molecular target: T1, monomeric recombinant KAAG1; assay: SPR (Biacore): antibody captured on immobilised anti-human Fc, monomeric recombinant KAAG1 injected, global 1:1 fit; average KD; humanized light + humanized heavy chain, 'HH'
Experimental: as §1

[3] = molecular target: T2, recombinant Fc-KAAG1 fusion protein (full-length KAAG1) (human, UniProt Q9UBP8 1-84, biotinylated with NHS-biotin (sites not given)); assay: ELISA on recombinant Fc-KAAG1
T2 construct: also called recombinant human KAAG1; not shown: human Fc domain encoded by expression plasmid pYD5; vector-encoded residues between the Fc and the BamHI cloning site of pYD5
T2 sequence: T1 sequence
Experimental: The 96-well master plate of monoclonal preparations contained different concentrations of purified anti-KAAG1 Fabs in each well. A second stock master plate was prepared by diluting the Fabs to a final concentration of 10 μg/ml from which all subsequent dilutions were performed for ELISA measurements. To carry out the binding of Fc-KAAG1 to the monoclonal preparations, the Fc-KAAG1 was biotinylated with NHS-biotin (Pierce, Rockford, Ill.) and 10 ng/well was coated in a streptavidin 96-well plate. One nanogram of each Fab monoclonal preparation was added to each well and incubated at room temperature for 30 minutes. Bound antibody was detected with HRP-conjugated mouse anti-kappa light chain antibody in the presence of TMB liquid substrate (Sigma-Aldrich Canada Ltd., Oakville, ON) and readings were conducted at 450 nm in microtiter plate reader.
Since an antibody harboring effector functions was required, the h3D3 was assembled as a human IgG₁. ELISA-based assays were performed to directly compare the ability of the h3D3 […]. The methods used to perform these tests were as described in Example 3 using recombinant Fc-KAAG1.

[4] = molecular target: T1, monomeric recombinant KAAG1; assay: SPR (Biacore): antibody captured on immobilised anti-human Fc, monomeric recombinant KAAG1 injected, global 1:1 fit; average KD; chimeric light + humanized heavy chain, 'CH'
Experimental: as §1

[5] = molecular target: T1, monomeric recombinant KAAG1; assay: SPR (Biacore): antibody captured on immobilised anti-human Fc, monomeric recombinant KAAG1 injected, global 1:1 fit; average KD; humanized light + chimeric heavy chain, 'HC'
Experimental: as §1

Ka [1]: 2.28e+09 M⁻¹ | koff [1]: 0.00111 s⁻¹ | kon [1]: 2.53e+06 M⁻¹ s⁻¹ | Kd [2]: 0.439 nM | EC50 (read off the curve) [3]: ~0.1 µg/mL
B1: humanized 3D3 anti-KAAG1 antibody (human IgG1) (antibody, V domains shown)
VH: EVQLVQSGAEVKKPGASVKVSCKASGYIFTDYEIHWVRQAPGQGLEWMGVIDPETGNTAFNQKFKGRVTITADTSTSTAYMELSSLTSEDTAVYYCMGYSDYWGQGTLVTVSS
VL: DIVMTQSPDSLAVSLGERATINCKSSQSLLNSNFQKNFLAWYQQKPGQPPKLLIYFASTRESSVPDRFSGSGSGTDFTLTISSLQAEDVAVYYCQQHYSTPLTFGQGTKLEIKR
notes: The leader residues before them are left out; also called h3D3; HH

Ka [1]: 1.98e+09 M⁻¹ | koff [1]: 0.00111 s⁻¹ | kon [1]: 2.2e+06 M⁻¹ s⁻¹ | Kd [4]: 0.505 nM
B2: 3D3 hybrid antibody: chimeric light chain expressed with the humanized heavy chain (antibody, human IgG1, V domains shown)
VH: B1 VH
VL: DIVMTQSPSSLAVSIGQKVTMNCKSSQSLLNSNFQKNFLAWYQQKPGQSPKLLIYFASTRESSIPDRFIGSGSGTDFTLTISSVQAEDLADYFCQQHYSTPLTFGAGTKLELKA

Ka [1]: 3.24e+09 M⁻¹ | koff [1]: 0.00073 s⁻¹ | kon [1]: 2.36e+06 M⁻¹ s⁻¹ | Kd [5]: 0.309 nM
B3: 3D3 hybrid antibody: humanized light chain expressed with the chimeric heavy chain (antibody, V domains shown)
VH: EVQLQQSVAELVRPGASVTLSCKASGYIFTDYEIHWVKQTPVHGLEWIGVIDPETGNTAFNQKFKGKATLTADISSSTAYMELSSLTSEDSAVYYCMGYSDYWGQGTTLTVSS
VL: B1 VL
notes: also called HC
